# Laboratory results reported in article PMC7295242.
# Columns and labels:
# [1] = system: CCHFV nucleoprotein (NP) (Crimean-Congo hemorrhagic fever orthonairovirus); experiment: fluorescence anisotropy
# [2] = system: CCHFV nucleoprotein (NP) (Crimean-Congo hemorrhagic fever orthonairovirus); experiment: competition fluorescence anisotropy
Substance,Kd [1] [nM],IC50 [2] [nM]
27-mer RNA,190,197
48-mer RNA,230,167
